Values of other authors, collected in PMC7277390.

Biological target: serum albumin (MSA) (Mus musculus) (UniProt P07724)
Chain of UniProt P07724 (P07724 25-608): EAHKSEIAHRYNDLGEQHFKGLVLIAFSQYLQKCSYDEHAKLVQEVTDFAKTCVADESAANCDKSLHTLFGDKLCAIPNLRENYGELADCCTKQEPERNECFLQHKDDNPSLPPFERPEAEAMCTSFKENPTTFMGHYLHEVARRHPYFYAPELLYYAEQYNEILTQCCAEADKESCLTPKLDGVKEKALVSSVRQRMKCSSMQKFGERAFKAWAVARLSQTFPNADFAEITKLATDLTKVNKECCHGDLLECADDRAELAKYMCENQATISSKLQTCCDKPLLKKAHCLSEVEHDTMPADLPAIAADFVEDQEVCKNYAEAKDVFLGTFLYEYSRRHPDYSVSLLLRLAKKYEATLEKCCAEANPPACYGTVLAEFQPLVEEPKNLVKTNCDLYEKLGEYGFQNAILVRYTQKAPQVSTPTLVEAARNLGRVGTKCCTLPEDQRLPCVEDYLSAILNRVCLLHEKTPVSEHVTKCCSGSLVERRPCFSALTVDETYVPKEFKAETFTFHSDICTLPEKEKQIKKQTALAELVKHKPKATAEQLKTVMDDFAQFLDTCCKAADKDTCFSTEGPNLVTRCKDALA

Kd: 546 nM
Substance: FcRn (from UniProt Q61559)
